The source of these data is publication PMC3642112.

For data set [1], the target named is human translin (wild-type) (human, UniProt Q15631 1-228). Description: EMSA. A general note: In EMSA bound probe runs differently from free probe, usually more slowly.
Data set [2] concerns the target T1, translin (wild-type, native) (Drosophila melanogaster, UniProt Q7JVK6 1-235).
T1 sequence: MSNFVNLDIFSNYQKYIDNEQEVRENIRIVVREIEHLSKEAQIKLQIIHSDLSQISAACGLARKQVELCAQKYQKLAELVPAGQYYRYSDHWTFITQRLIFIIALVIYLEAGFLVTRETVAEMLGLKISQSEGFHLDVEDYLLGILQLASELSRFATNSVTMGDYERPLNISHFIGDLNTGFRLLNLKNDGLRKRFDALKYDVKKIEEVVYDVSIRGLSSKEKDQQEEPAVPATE
The data set is described as follows: EMSA.

Sequence of human translin (wild-type) (Q15631 whole entry): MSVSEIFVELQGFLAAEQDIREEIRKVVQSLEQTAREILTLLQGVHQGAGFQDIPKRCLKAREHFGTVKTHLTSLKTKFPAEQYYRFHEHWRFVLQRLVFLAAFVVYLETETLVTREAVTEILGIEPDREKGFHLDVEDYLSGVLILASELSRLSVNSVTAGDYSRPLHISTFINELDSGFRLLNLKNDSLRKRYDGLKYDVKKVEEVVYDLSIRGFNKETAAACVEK

B1: Bcl-CL1 24-mer ssDNA (ssDNA)
DNA: GCCCTCCTGCCCTCCTTCCGCGGG
On to B1, for which the binding result in data set [1] and in data set [2] was “binds” throughout.
